Experimental data as given in US7338938B2, “Methods for treating a patient undergoing chemotherapy” (University of Southern California, priority 1999, dated 2008).
Entries after “also recorded” stand apart in the source; their conditions may differ. Non-standard residues stand in square brackets, D forms with d. No end group written: not given here. Phe(4-NH2) = Nc1ccc(C[C@H](N)C(=O)O)cc1

Legend:
[1] = test system: mice injected with 150 mg/kg 5FU intravenously (WBC, platelets, hemoglobin); assay: Effect of angiotensin fragments and ACE inhibitor on recovery after chemotherapy (Example 4); format: in vivo; conditions: for relative effect on increase in WBC (ranking of active agents): throughout the experimental period
Procedure: The next study was designed to test the effect of angiotensin peptides and the angiotensin converting enzyme inhibitor, enalapril, on recovery of white blood cells, platelets and hemoglobin after chemotherapy, as well as on granulocyte-macrophage colony forming units (GM-CFU) in the blood and bone marrow.
Female […] mice (4 per group), 6-8 weeks old, were injected with 150 mg/kg 5FU intravenously. Administration of the peptides (AII (100 μg/kg/day), AII(1-7) (10 or 100 μg/kg/day), AII(1-5) (10 or 100 μg/kg/day), and AII(1-6) (100 μg/kg/day)), by subcutaneous injection, or enalapril (30 mg/kg/day) by oral gavage, was begun 2 days after administration of the antineoplastic and continued daily until 28 days after 5FU administration, at which time the mice were euthanized for evaluation of white blood cell numbers, platelets, hemoglobin levels and the number of GM-CFU in the bone marrow and peripheral blood. On days 7, 10, 14 and 21 after 5FU administration, blood was taken under anesthesia from the retro-orbital sinus to assess white blood cell number, platelet number, and hemoglobin levels.
The mice were bled from the retro-orbital sinus at days 7, 10, 14 and 21. The mice were anesthetized with Metofane (an inhaled anesthesia). Approximately 150-200 μl of blood were obtained from the retro-orbital sinus with a heparinzed capillary tube. The blood was then placed in a 1.7 ml microfuge tube containing 10 mM EDTA and held on ice until further processing.
One hundred μl of blood was pipetted into a centrifuge tube, to which 900 μl of distilled water was added. The blood and water were mixed by inversion and allowed incubate at 4° C. for 20 minutes. The tube was then centrifuged at 12000 rpm to precipitate the cellular debri for 20 to 30 minutes at room temperature. Twenty μl of the supernatant from this centrifugation was then added into triplicate wells of a 96 well plate containing 180 μl of distilled water. The optical density, was then read using a microplate reader at […].
Twenty μl of blood was mixed with 200 μl of red blood cell (RBC) lysing solution (0.83% NH4Cl, 10 mM EDTA, 0.5% NaHCO3). The mixture was then incubated for 10 minutes at 4° C. After this incubation, the supernatant was removed and the pellet was resuspended in 100 μl of PBS. To this, 100 μl of 0.04% trypan blue was added. This mixture was vortexed and the number of WBC (baseline was approximately 10^7 cells/ml) was evaluated by hematocytometer under light microscopy and the number: of platelets (baseline was approximately 2.5×10^8 platelets/ml) was evaluated by hematocytometer under phase contrast microscopy.
The blood was harvested by cardiac puncture on day 10 to assess mobilization of myeloid progenitors into the peripheral blood. The femurs and tibia were also collected and the bone marrow was harvested by flushing with PBS containing 2% fetal calf serum. After collection of the blood and bone marrow, the red blood cells were lysed with a hypotonic solution (described above), mixed with 0.04% trypan blue, and the number of nucleated cells assessed by hematocytometer under light microscopy. Aliquots of cells were then resuspended at 1×10^5 cells/ml (bone marrow) or 1×10^6 cells/ml Flood). […]

[2] = test system: female C57B1/6 mice treated with 200 mg/kg cytoxan; conditions: 200 mg/kg cyclophosphamide i.v.
[3] = Tests of AII fragments for effectiveness (method not described); conditions: test not specified
[4] = test system: animals given intravenous 5FU (white blood cells, CFU-GM); assay: Effect of AII on white blood cell mobilization and recovery after 5-fluorouracil (Example 1); format: in vivo, mice; conditions: AII 10 or 100 μg/kg/day s.c., started day -2, 0 or 2 relative to i.v. 5FU; day 7 or 14; all tissues tested (blood, spleen, thymus, bone marrow)
Procedure: This study was designed to test the effect of AII on the recovery of white blood cells in lymphoid organs and on the level of granulocyte macrophage precursors (CFU-GM) in the blood (ie: mobilization), spleen (mobilization), and bone marrow (recovery) after intravenous administration of 5-fluorouracil (5FU). […] The number of white blood cells in each of the lymphoid organs, or the number of CFU-GM present in all the organs except the thymus were then assessed.

AT2 receptor = conditions: cited from earlier work
[5] = test system: patients with newly diagnosed breast cancer receiving doxorubicin and cyclophosphamide
[6] = filgrastim 5.0 μg/kg/day comparator arm

DRVYIH [AII(1-6)]
relative effect on increase in WBC (ranking of active agents) [1]: least effective

O=P1(N(CCCl)CCCl)NCCCO1 (stereo not shown) [cyclophosphamide, reference compound]
number of myeloid progenitors (GM-CFU) in the bone marrow after cyclophosphamide [2]: significantly reduced

Tyr-Ile-His-Pro-Phe (YIHPF) [AII(4-8)]
effectiveness in tests [3]: not to be effective; also recorded: ineffective

Asp-Arg-Val-Tyr-Ile-His-Pro-Phe (DRVYIHPF) [AII]
white blood cell mobilization and/or recovery [4]: significantly enhanced | relative effect on increase in WBC (ranking of active agents) [1]: most profound effect

CCOC(=O)[C@H](CCc1ccccc1)N[C@@H](C)C(=O)N1CCC[C@H]1C(=O)O [enalapril, reference compound]
relative effect on increase in WBC (ranking of active agents) [1]: least effective

His-Pro-Phe (HPF) [AII(6-8)]
effectiveness in tests [3]: not to be effective

Asp-Arg-Val-Tyr-Ile-Xaa-Pro-Phe (DRVYI[Phe(4-NH2)]PF) [(p-NH2-Phe)6-AII]
affinity for AT2 relative to other receptor subtype (AT2 receptor): 100 times | binding characteristics in the experimental models tested (AT2 receptor): comparable’ to AT2 antagonists

Asp-Arg-Val-Tyr-Ile (DRVYI) [AII(1-5)]
platelets after administration ([1]; after i.v. 5FU): increase in platelets

B1: Filgrastim: recombinant G-CSF (NEUPOGEN, Amgen, Inc.), comparator arm (protein, UniProt P09919 31-207, looked up)
Granulocyte …: TPLGPASSLPQSFLLKCLEQVRKIQGDGAALQEKLVSECATYKLCHPEELVLLGHSLGIPWAPLSSCPSQALQLAGCLSQLHSGLFLYQGLLQALEGISPELGPTLDTLQLDVADFATTIWQQMEELGMAPALQPTQGAMPAFASAFQRRAGGVLVASHLQSFLEVSYRVLRHLAQP
modifications: filgrastim, N-terminal methionine
Alopecia (frequency by treatment group) ([5]; chemotherapy patients): 40% | Anemia (frequency by treatment group) ([5]; chemotherapy patients): 60% | Fatigue (frequency by treatment group) ([5]; chemotherapy patients): 80% | Headache (frequency by treatment group) ([5]; chemotherapy patients): 60% | Myalgia/Muscle-skeletal pain (frequency by treatment group) ([5]; chemotherapy patients): 60% | Nausea (frequency by treatment group) ([5]; chemotherapy patients): 100% | Stomatitis (frequency by treatment group) ([5]; chemotherapy patients): 60% | Vomiting (frequency by treatment group) ([5]; chemotherapy patients): 60% | Toxicity: ANC < 1000/μl (frequency) [5, 6]: 40% | Toxicity: Hgb < 10 gm/dl (frequency) [5, 6]: 60% | Toxicity: Lymph < 500/μl (frequency) [5, 6]: 80% | Toxicity: Platelet < 80 K/μl (frequency) [5, 6]: 60% | Toxicity: WBC < 2000/μl (frequency) [5, 6]: 60% | frequency of grade 3-4 neutropenia ([5]; filgrastim compared to AII(1-7)): lower frequency | change in platelet number ([5]; patients that received filgrastim, more pronounced in subsequent cycles): time dependent decrease in platelet number
